Data taken from patent US20240010735A1 (EISAI R AND D MANAGEMENT, published 2024).

Legend:
Assay in all cases: ELISA: SEAP-His proteins (1 nM) captured on anti-6-His antibody, antibody A 10 µg/mL with human IgG 100 µg/mL, HRP anti-mouse IgG, OD450 as % of human EphA4-SEAP-His
[1] = target: T1, human EphB1 extracellular region-SEAP-His protein (human, UniProt P54762 18-540)
T1 construct: extracellular domain; also called Eph receptor extracellular region-SEAP-His protein; not shown: secretory alkaline phosphatase (SEAP); histidine tag
T1 sequence (looked up): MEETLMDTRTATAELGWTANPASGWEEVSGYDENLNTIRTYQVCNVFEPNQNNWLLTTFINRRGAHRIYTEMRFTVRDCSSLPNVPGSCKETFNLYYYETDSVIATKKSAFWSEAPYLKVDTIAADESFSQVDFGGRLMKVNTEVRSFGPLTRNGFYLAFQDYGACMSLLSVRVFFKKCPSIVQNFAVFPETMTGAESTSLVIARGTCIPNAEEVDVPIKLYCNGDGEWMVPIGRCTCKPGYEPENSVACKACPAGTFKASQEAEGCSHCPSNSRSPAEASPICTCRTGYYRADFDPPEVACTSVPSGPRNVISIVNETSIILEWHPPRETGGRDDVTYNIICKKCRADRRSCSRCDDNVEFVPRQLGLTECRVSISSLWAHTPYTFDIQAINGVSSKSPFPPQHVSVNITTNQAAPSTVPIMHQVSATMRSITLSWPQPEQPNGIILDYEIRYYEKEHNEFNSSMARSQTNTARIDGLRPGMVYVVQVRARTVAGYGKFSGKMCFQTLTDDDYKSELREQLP
Method: (§1) Rabbit anti-6-His antibodies (Bethel Laboratories) were coated onto the wells of a 96-well plate (Nunc). After incubating at 4° C. overnight, the wells were blocked at room temperature for 1 hour by 1% Block Ace (DS Pharma Biomedical). After washing 3 times with 0.05% Tween 20/PBS (Thermo […]), each Eph receptor of human extracellular region-SEAP-His protein (final concentration 1 nM) was seeded into each well, and incubated at room temperature for 1 hour. After washing 3 times, human IgG solution (100 μg/mL, Mitsubishi Pharma Corporation) and antibody A (10 μg/mL) were supplemented to the wells, and incubated at room temperature for 1 hour. Horseradish peroxidase-labeled donkey anti-mouse IgG antibody (Jackson ImmunoResearch Laboratories) was added, and incubated at room, temperature for 1 hour. After washing 3 times, TMBZ (3,3′,5,5′-tetramethylbenzidine, Sigma) solution was added to the wells, and upon confirmation of modest coloring, an equal amount of quenching solution (1 N H₂SO₄, Wako Pure Chemicals) was added to the wells, and absorbance at 450 nm was read by a microplate reader (PerkinElmer).

[2] = target: T2, human EphA7 extracellular region-SEAP-His protein (human, UniProt Q15375 28-555)
T2 construct: extracellular domain; also called Eph receptor extracellular region-SEAP-His protein; not shown: secretory alkaline phosphatase (SEAP); histidine tag
T2 sequence (looked up): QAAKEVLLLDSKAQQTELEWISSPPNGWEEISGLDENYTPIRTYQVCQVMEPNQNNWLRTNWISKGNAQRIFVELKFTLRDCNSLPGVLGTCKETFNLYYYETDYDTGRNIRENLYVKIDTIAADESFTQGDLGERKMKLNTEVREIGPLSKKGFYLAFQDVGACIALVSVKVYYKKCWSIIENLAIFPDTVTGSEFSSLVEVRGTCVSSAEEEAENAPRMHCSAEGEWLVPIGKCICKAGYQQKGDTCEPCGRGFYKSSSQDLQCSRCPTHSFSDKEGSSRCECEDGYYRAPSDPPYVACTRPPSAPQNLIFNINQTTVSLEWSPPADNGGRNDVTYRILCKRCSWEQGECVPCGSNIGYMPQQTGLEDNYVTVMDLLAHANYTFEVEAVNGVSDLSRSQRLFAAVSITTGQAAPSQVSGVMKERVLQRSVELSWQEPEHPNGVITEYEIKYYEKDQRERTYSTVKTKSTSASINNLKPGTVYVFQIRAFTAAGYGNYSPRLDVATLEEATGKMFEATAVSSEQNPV
Method: as §1

[3] = target: T3, human EphB3 extracellular region-SEAP-His protein (human, UniProt P54753 34-559)
T3 construct: extracellular domain; also called Eph receptor extracellular region-SEAP-His protein; not shown: secretory alkaline phosphatase (SEAP); histidine tag
T3 sequence (looked up): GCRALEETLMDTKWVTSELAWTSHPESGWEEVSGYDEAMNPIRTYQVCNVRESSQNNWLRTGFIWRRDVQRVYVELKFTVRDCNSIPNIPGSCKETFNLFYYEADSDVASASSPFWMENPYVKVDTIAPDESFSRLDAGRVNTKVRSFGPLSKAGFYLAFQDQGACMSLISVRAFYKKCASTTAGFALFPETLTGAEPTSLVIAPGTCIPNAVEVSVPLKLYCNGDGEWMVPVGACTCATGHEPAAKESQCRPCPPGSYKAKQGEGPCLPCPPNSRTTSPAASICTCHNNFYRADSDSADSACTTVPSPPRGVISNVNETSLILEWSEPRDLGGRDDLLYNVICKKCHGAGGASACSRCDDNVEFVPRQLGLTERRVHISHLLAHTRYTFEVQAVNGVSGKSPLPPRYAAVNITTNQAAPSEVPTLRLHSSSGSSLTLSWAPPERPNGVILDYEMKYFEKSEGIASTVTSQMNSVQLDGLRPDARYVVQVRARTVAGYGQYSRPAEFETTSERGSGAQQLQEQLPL
Method: as §1

Measured: binding result

B1: mouse anti-EphA4 monoclonal antibody (antibody A) (antibody, mouse IgG1, kappa, V domains shown)
VH: QVQLKQSGPSLVQPSQSLSITCTVSGFSLTRYGVHWVRQSPGKGLEWLGVIWRGGSTDYNAAFMSRLSITKDNSKSQVFFKMNSLQADDTAIYYCAKESLFGVYYDYGYYSMDYWGQGTSVTVSS
VL: DIQMTQSPSSLSASLGERVSLTCRASQEISGYLSWLQQKPDGTIKRLIYAASTLDSGVPKRFSGSRSGSDYSLTISSLESEDFADYYCLQYASYPLTFGAGTKLELKR
notes: purified from hybridoma supernatant
no binding (tested: 10 µg/mL): [1] | [2] | [3]
